Tests used:
[1] = target: SPAG9, O60271-2
[2] = target: SPAG9, O60271-2; remark: listed apart in the source

Sequence of SPAG9, O60271-2 (O60271 other isoform, or with tags, fused parts or gaps): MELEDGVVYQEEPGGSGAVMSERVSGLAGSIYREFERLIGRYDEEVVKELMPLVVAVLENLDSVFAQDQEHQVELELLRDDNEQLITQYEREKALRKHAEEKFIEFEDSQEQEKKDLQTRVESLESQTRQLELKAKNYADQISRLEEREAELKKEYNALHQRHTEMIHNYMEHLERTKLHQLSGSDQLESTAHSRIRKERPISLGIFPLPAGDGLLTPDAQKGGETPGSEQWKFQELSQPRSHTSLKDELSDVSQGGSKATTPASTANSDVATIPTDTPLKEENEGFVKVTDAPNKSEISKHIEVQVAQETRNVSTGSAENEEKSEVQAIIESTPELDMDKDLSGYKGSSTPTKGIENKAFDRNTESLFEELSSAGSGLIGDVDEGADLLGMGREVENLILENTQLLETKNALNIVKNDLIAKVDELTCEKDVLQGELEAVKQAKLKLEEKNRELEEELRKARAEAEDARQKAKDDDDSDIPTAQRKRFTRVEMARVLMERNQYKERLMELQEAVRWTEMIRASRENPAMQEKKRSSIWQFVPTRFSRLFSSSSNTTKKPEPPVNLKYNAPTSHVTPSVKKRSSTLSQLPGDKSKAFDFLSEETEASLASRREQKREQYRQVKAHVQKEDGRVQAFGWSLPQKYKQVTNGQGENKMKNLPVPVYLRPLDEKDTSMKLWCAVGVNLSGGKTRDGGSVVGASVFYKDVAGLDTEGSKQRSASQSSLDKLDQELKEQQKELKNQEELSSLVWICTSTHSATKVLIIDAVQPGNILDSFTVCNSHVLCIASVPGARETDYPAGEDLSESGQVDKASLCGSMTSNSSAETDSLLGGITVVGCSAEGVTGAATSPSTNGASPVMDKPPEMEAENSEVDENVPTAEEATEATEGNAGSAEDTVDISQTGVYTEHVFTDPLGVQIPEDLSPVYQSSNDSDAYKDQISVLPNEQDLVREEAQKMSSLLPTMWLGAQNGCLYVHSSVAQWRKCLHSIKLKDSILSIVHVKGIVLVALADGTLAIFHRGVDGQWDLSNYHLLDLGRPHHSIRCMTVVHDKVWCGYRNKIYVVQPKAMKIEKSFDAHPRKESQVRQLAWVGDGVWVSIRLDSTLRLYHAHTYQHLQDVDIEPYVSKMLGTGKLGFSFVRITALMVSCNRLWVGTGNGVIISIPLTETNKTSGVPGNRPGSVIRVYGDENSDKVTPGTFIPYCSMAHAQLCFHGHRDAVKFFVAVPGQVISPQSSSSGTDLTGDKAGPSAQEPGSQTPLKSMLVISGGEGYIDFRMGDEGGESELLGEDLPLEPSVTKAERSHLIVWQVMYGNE
Sequence of ADP-ribosylation factor 1 (Homo sapiens), P84077 S62K (P84077 whole entry S62K): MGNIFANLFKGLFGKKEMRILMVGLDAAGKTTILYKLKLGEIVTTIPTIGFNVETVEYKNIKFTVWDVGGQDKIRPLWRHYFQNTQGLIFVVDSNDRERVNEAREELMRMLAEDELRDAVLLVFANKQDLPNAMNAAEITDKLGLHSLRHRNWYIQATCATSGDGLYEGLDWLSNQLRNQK
Sequence of ADP-ribosylation factor 1 (Homo sapiens), P84077 E57T (P84077 whole entry E57T): as the sequence (P84077 whole entry S62K) above, with E57T, K62S counted along it

Substance | effect of a mutation on the interaction [1] | effect of a mutation on the interaction [2]
ADP-ribosylation factor 1 (Homo sapiens), P84077 S62K | increasing interaction | –
ADP-ribosylation factor 1 (Homo sapiens), P84077 T64N | increasing interaction | –
ADP-ribosylation factor 1 (Homo sapiens), P84077 Q83T | – | increasing interaction
ADP-ribosylation factor 1 (Homo sapiens), P84077 E57T | – | increasing interaction

From IntAct's records for PubMed 19644450
